# Results reported in article PMC3169740.
# Target: fluorescein-labeled SC pseudorepeat-repeat-1 peptide PR-R1[5F] (S. aureus)
# Assay: other fluorescence titration
substance,measurement,value
fibrinogen fragment D (domain or fragment),Kd,36 nM
same,stoichiometry N (mol of fragment D/mol of peptide),0.77
